Blank lines part the entries; values can stand above or below the binder they belong to.
Tests used:
Experiment in all cases: cryo-EM structure; replisome assembled at room temperature from 0.7 uM CMG, forked DNA and ATPγS, then 1.5 molar excess of Polε, Ctf4, Tof1-Csm3; 100 mM KCl, 25 mM HEPES pH 7.6, 4 mM MgCl2, 4 mM ATPγS; 10-30% glycerol gradient with glutaraldehyde fixation; States I-VI by 3D classification
[1] = target: T1, Mcm5 (subunit of CMG) (yeast, UniProt P29496 1-775); conditions: both partners purified
T1 construct: Mcm5, yeast; Chain of m1 as it stands in the replisome structure; also called Mcm5-CTD; Mcm5-WHD; source: yeast strain yJCZ2, purified as part of CMG (anti-FLAG M2 resin, Mono Q, Superose 6)
T1 sequence: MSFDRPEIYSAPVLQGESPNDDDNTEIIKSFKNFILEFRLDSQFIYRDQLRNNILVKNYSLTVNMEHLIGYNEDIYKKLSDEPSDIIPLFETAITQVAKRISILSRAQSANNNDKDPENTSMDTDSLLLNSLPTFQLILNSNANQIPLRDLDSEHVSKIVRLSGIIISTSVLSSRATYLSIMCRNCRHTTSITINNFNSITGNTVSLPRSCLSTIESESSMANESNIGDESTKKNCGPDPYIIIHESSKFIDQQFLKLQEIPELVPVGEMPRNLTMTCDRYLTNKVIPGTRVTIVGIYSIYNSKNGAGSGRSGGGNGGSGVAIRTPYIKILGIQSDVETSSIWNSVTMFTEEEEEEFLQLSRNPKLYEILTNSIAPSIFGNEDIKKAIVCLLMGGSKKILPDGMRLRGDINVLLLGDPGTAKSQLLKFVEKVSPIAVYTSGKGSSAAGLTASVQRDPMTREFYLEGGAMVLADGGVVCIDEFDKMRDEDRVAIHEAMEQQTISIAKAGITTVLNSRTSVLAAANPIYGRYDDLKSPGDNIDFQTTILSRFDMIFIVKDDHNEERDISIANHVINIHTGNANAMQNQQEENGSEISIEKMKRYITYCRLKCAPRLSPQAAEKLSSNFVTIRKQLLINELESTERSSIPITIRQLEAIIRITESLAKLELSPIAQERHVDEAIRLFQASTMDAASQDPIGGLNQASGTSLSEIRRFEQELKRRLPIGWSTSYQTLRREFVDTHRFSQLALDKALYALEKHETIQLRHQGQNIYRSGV

[2] = target: T2, Mcm3 (subunit of CMG) (yeast, UniProt P24279 1-971); conditions: both partners purified
T2 construct: Mcm3, yeast; Chain of m1 as it stands in the replisome structure; source: yeast strain yJCZ2, purified as part of CMG (anti-FLAG M2 resin, Mono Q, Superose 6)

[3] = target: T3, Mcm4 (subunit of CMG) (yeast, UniProt P30665 1-933); conditions: both partners purified
T3 construct: Mcm4, yeast; Chain of m1 as it stands in the replisome structure; source: yeast strain yJCZ2, purified as part of CMG (anti-FLAG M2 resin, Mono Q, Superose 6)
T3 sequence: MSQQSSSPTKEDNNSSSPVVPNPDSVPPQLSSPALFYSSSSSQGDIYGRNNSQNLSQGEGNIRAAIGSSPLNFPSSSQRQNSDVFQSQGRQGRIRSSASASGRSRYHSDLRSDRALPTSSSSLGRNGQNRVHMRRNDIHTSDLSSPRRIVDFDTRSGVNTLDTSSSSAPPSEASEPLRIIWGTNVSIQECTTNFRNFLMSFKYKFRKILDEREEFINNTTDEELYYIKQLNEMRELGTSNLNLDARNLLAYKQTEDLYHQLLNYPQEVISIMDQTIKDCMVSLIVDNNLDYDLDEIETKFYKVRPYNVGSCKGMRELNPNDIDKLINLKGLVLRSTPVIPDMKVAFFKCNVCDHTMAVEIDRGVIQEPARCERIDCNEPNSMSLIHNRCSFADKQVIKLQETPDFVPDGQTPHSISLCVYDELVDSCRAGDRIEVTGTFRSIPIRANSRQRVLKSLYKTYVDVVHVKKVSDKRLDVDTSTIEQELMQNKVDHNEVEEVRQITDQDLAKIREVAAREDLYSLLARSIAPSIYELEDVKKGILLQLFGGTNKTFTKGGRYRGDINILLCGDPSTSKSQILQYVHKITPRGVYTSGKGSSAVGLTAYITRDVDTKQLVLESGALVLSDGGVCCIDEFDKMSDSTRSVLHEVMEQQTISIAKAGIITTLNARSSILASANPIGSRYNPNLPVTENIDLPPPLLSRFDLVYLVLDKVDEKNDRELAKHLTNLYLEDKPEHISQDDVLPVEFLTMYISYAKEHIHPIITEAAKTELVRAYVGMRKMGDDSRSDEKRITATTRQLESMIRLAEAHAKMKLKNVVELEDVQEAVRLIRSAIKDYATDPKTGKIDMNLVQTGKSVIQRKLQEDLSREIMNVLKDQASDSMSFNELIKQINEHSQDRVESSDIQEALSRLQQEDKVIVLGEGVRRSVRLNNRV

[4] = target: T4, Tof1-Csm3 (yeast, UniProt P53840 1-1238; Q04659 1-317); conditions: both partners purified
T4 construct: Tof1, yeast; Csm3, yeast; Purified beforehand as one complex; also called Tof1 and Csm3; components of the fork protection complex (FPC); source: yeast strain yAE48, galactose-induced, purified (calmodulin resin, TEV elution, Mono Q, Superose 6); not shown: CBP, N-terminal, cleaved

[5] = target: the molecule itself

T2 sequence (P24279 whole entry): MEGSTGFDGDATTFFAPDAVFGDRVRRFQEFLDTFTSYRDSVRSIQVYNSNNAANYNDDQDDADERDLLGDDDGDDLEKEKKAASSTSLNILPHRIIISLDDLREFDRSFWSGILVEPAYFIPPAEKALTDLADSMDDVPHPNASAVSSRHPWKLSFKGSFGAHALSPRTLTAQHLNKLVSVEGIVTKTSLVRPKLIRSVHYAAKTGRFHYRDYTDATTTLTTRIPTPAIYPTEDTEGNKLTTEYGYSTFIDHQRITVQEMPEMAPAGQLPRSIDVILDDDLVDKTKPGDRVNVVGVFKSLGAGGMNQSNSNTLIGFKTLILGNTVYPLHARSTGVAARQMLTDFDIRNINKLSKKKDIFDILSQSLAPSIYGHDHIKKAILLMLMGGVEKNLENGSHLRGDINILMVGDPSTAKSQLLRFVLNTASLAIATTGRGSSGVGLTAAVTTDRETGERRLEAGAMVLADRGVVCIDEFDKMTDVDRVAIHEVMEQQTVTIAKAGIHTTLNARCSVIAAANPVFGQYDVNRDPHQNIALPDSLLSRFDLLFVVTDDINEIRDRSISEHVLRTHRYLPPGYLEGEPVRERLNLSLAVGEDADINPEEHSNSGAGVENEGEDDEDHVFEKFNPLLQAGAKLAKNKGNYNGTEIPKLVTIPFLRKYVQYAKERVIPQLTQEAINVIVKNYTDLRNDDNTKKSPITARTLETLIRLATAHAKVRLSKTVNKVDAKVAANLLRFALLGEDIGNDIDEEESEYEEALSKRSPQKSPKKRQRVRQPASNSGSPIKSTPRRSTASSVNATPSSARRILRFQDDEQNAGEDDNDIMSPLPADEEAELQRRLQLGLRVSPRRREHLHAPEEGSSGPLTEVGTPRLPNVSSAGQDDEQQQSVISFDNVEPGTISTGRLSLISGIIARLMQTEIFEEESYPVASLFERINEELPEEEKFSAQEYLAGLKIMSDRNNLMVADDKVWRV
T4 sequence (P53840 whole entry, chain 1 of 2): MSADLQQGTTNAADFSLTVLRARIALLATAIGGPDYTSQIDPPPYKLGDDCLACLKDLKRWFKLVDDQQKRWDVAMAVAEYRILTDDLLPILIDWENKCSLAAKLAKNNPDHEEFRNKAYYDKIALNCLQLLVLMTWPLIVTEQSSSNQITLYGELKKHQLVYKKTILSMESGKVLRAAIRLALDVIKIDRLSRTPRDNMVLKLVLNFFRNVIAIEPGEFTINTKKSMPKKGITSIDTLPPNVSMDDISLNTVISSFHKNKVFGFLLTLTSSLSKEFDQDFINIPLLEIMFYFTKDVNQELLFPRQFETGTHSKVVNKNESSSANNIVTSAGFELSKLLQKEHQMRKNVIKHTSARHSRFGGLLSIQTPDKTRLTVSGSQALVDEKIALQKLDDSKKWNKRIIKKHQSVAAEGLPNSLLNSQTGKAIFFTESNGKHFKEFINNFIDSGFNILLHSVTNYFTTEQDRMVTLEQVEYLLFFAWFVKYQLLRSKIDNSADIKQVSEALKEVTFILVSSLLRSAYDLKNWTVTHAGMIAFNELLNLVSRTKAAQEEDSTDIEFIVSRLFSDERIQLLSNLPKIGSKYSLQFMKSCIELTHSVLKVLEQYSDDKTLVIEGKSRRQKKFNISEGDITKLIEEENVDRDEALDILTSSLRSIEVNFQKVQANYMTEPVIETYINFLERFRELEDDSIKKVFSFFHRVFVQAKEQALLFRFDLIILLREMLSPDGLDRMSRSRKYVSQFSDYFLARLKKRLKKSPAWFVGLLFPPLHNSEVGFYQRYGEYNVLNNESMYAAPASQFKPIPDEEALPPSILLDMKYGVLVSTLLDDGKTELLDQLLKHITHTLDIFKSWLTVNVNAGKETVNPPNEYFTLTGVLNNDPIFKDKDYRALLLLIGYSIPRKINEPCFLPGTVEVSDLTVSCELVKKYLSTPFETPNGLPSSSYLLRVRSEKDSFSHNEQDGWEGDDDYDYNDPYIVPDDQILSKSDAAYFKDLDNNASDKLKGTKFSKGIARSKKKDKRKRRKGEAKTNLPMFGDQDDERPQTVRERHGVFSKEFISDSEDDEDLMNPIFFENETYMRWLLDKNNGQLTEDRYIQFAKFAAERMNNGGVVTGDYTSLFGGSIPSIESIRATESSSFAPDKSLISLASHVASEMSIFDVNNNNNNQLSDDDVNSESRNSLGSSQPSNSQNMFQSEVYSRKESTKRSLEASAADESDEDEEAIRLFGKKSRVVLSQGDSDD
T4 sequence (Q04659 whole entry, chain 2 of 2): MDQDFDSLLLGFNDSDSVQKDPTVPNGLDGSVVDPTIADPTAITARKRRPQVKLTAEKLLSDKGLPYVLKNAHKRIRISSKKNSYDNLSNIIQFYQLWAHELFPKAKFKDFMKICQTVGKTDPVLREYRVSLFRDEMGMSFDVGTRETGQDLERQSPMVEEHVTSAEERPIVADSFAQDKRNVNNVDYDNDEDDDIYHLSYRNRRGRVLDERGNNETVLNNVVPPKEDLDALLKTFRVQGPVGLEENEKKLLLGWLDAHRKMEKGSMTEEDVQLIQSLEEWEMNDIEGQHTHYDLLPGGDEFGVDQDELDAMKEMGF

binding result [1]: binds
binding result [2]: binds
B1: Dpb2 (subunit of Polε in the replisome) (natural protein, yeast)
chain: MFGSGNVLPVKIQPPLLRPLAYRVLSRKYGLSIKSDGLSALAEFVGTNIGANWRQGPATIKFLEQFAAVWKQQERGLFIDQSGVKEVIQEMKEREKVEWSHEHPIQHEENILGRTDDDENNSDDEMPIAADSSLQNVSLSSPMRQPTERDEYKQPFKPESSKALDWRDYFKVINASQQQRFSYNPHKMQFIFVPNKKQNGLGGIAGFLPDIEDKVQMFLTRYYLTNDRVMRNENFQNSDMFNPLSSMVSLQNELSNTNRQQQSSSMSITPIKNLLGRDAQNFLLLGLLNKNFKGNWSLEDPSGSVEIDISQTIPTQGHYYVPGCMVLVEGIYYSVGNKFHVTSMTLPPGERREITLETIGNLDLLGIHGISNNNFIARLDKDLKIRLHLLEKELTDHKFVILGANLFLDDLKIMTALSKILQKLNDDPPTLLIWQGSFTSVPVFASMSSRNISSSTQFKNNFDALATLLSRFDNLTENTTMIFIPGPNDLWGSMVSLGASGTLPQDPIPSAFTKKINKVCKNVVWSSNPTRIAYLSQEIVIFRDDLSGRFKRHRLEFPFNESEDVYTENDNMMSKDTDIVPIDELVKEPDQLPQKVQETRKLVKTILDQGHLSPFLDSLRPISWDLDHTLTLCPIPSTMVLCDTTSAQFDLTYNGCKVINPGSFIHNRRARYMEYVPSSKKTIQEEIYI
notes: Dpb2, yeast, subunit of Polε; NTD 12-98, linker 99-156, PDE domain 157-689 as printed; Chain of m2 as it stands in the replisome structure; also called Dpb2-NTD; Dpb2-OB; source: yeast strain yAJ2, purified as part of Polε (calmodulin resin, TEV elution, Mono Q, Superose 6)

binding result [3]: binds
binding result [4]: binds
binding result [2]: binds
B2: Mcm7 (subunit of CMG) (natural protein, yeast)
chain: MSAALPSIQLPVDYNNLFNEITDFLVTFKQDTLSSDATRNENEDENLDAENIEQHLLEKGPKYMAMLQKVANRELNSVIIDLDDILQYQNEKFLQGTQADDLVSAIQQNANHFTELFCRAIDNNMPLPTKEIDYKDDVLDVILNQRRLRNERMLSDRTNEIRSENLMDTTMDPPSSMNDALREVVEDETELFPPNLTRRYFLYFKPLSQNCARRYRKKAISSKPLSVRQIKGDFLGQLITVRGIITRVSDVKPAVEVIAYTCDQCGYEVFQEVNSRTFTPLSECTSEECSQNQTKGQLFMSTRASKFSAFQECKIQELSQQVPVGHIPRSLNIHVNGTLVRSLSPGDIVDVTGIFLPAPYTGFKALKAGLLTETYLEAQFVRQHKKKFASFSLTSDVEERVMELITSGDVYNRLAKSIAPEIYGNLDVKKALLLLLVGGVDKRVGDGMKIRGDINVCLMGDPGVAKSQLLKAICKISPRGVYTTGKGSSGVGLTAAVMKDPVTDEMILEGGALVLADNGICCIDEFDKMDESDRTAIHEVMEQQTISISKAGINTTLNARTSILAAANPLYGRYNPRLSPLDNINLPAALLSRFDILFLMLDIPSRDDDEKLAEHVTYVHMHNKQPDLDFTPVEPSKMREYIAYAKTKRPVMSEAVNDYVVQAYIRLRQDSKREMDSKFSFGQATPRTLLGIIRLSQALAKLRLADMVDIDDVEEALRLVRVSKESLYQETNKSKEDESPTTKIFTIIKKMLQETGKNTLSYENIVKTVRLRGFTMLQLSNCIQEYSYLNVWHLINEGNTLKFVDDGTMDTDQEDSLVSTPKLAPQTTASANVSAQDSDIDLQDA
notes: Mcm7, yeast; Chain of m1 as it stands in the replisome structure; source: yeast strain yJCZ2, purified as part of CMG (anti-FLAG M2 resin, Mono Q, Superose 6)

B3: Ctf4 homotrimer (natural protein, yeast)
chain: MVSVIDKLVFDFGGKTLVSLAPDNNTLCVANKNGLTKILKTNNPEEEPETLDSSKLVSSIKCYSNSHFLMTTMQGDALRYNIDSSQEELLARFALPLRDCCVIHSGKMAVFGGDDLELILLELDDETHKKHAIKIDEQVSQISYNSQMNILAVSMINGKVQIFSLTSTIPNKVHELNDYIVANSYDDTHRDKILSNMMDDIDKDNDNDLSETADPDENNVADPEFCAANRICTRVAWHPKGLHFALPCADDTVKIFSIKGYSLQKTLSTNLSSTKAHFIDLQFDPLRGTYIAAVDLNNKLTVWNWETSEIHYTREFKRKITNIAWKIQADSKTLDLVLGTWSGSIAIVQNLAESVVSNIPDQSVAESSTKHGLFVDSESDLENLEGNDDINKSDKLFSDITQEANAEDVFTQTHDGPSGLSEKRKYNFEDEEDFIDDDDGAGYISGKKPHNEHSYSRVHKTHSFPISLANTGKFRYMPFSPAGTPFGFTDRRYLTMNEVGYVSTVKNSEQYSITVSFFDVGRFREYHFEDLFGYDLCFLNEKGTLFGQSKTGQIQYRPHDSIHSNWTKIIPLQAGERITSVAATPVRVIVGTSLGYFRSFNQFGVPFAVEKTSPIVALTAQNYRVFSVHYSQFHGLSYSLSELGTSSKRYYKRECPLPMSLPNINSDMKKDANLDYYNFNPMGIKSLFFSSYGDPCIFGSDNTLLLLSKWRSPEESKWLPILDSNMEIWKMSGGKETTDIHVWPLALAYDTLNCILVKGKHIWPEFPLPLPSEMEIRMPVFVKSKLLEENKAILNKKNEIGADTEAEEGEEDKEIQIPVSMAAEEEYLRSKVLSELLTDTLENDGEMYGNENEVLAALNGAYDKALLRLFASACSDQNVEKALSLAHELKQDRALTAAVKISERAELPSLVKKINNIREARYEQQLK
notes: Ctf4, yeast; also called Ctf4 trimer; source: E. coli BL21(DE3) Rosetta (pXZ1), purified (Ni-NTA, sumo protease, Ni-NTA, Mono Q, Superose 6)
stoichiometry N [5]: 3

— paper PMC10511561, “Synergism between CMG helicase and leading strand DNA polymerase at replication fork” (Nature Communications, 2023)
